Test results reported in patent publication US10543282B2, “Targeted peptide conjugates” (Marker Gene Technologies, Inc., priority 2014, dated 2020).
Non-standard residues stand in square brackets, D forms with d. Residues, ends and D or L forms follow the SMILES beside them. ξ: configuration not given here. *: point of attachment. X2 = Cn1cc(C2=C(c3ccc(NC(=O)CCCN4C(=O)CC(*)C4=O)cc3)C(=O)NC2=O)c2ccccc21; X1 = O=C(CCCN1C(=O)CC(*)C1=O)Nc1c(Br)cc(Br)cc1CN[C@H]1CC[C@H](O)CC1; ξC = NC(CS)C(=O)O; ξA = CC(N)C(=O)O

Experiments:
[1] = tested on: lysosomal GCase in immortalized B-Lymphoblast cells derived from a Gaucher I patient (GM10870); test: Lysosomal GCase activity by flow cytometry with LysoLive fluorogenic GCase substrate; assay type: cell-based, human; details: 48 hours; for lysosomal GCase activity, Ambroxol and its targeted derivative: multiple concentrations, FIG. 15; for lysosomal GCase activity compared to native drug SB216763: 1.0-5.0 uM, FIG. 14
Method: Immortalized B-Lymphoblast cells derived from a Gaucher I patient (GM10870, CCR) were incubated overnight in a CO2 incubator at 37° C./5% CO2. Equal numbers of cells (50,000 cells/well) were transferred to individual wells of 96-well tissue culture plates and treated with the native drug NSC 95397 or the organelle targeted NSC 95397 derivatives (M2770, M2771) at multiple concentrations (0.5-10 uM) and incubated at 37° C./5% CO2 for 48 hours. A lysosomal-targeted fluorogenic GCase substrate (MarkerGene™ LysoLive™ Lysosomal β-Glucosidase Assay Kit, Product M2775) was then added to the wells according to the manufacturer's instructions to a final concentration of 5 uM and cells were incubated a further 16 hours. DRAQ7 (dead-cell stain) was then added to the cells to a final concentration of 3 uM and cells immediately analyzed using a BD Accuri C6 flow cytometer, capturing 10000 live cell events and the median fluorescence of the stained cell populations graphed as shown in FIG. 13.
Immortalized B-Lymphoblast cells derived from a Gaucher I patient (GM10870, CCR) were incubated overnight in a CO2 incubator at 37° C./5% CO2. Equal numbers of cells (50,000 cells/well) were transferred to individual wells of 96-well tissue culture plates and treated with native drug SB216763 or the organelle targeted SB216763 derivatives (M2747, M2748) at multiple concentrations (1.0-5.0 uM) and incubated at 37° C./5% CO2 for 48 hours. A lysosomal-targeted fluorogenic GCase substrate (MarkerGene™ LysoLive™ Lysosomal β-Glucosidase Assay Kit, Product M2775) was then added to the wells according to the manufacturer's instructions to a final concentration of 5 uM and cells were incubated a further 16 hours. DRAQ7 (dead-cell stain) was then added to the cells to a final concentration of 3 uM and all cell wells immediately analyzed using a BD Accuri C6 flow cytometer, capturing 10000 live cell events and the median fluorescence of the stained cell populations graphed as shown in FIG. 14.
Immortalized B-lymphoblast cells derived from a Gaucher I patient leukocytes (GM10870, CCR) were incubated overnight in a CO2 incubator at 37° C./5% CO2. Equal numbers of cells (50,000 cells/well) were transferred to individual wells of 96-well tissue culture plates and treated with the native drug Ambroxol or the organelle-targeted Ambroxol derivative (M2781) at the multiple concentrations shown and incubated at 37° C./5% CO2 for 48 hours. Following drug treatment, a lysosomal-targeted fluorogenic GCase substrate (MarkerGene™ LysoLive™ Lysosomal β-Glucosidase Assay Kit, Product M2775) was then added to the wells according to the manufacturer's instructions to a final concentration of 5 uM and cells were incubated a further 16 hours. DRAQ7 (dead-cell stain) was then added to the cells to a final concentration of 3 uM and cells immediately analyzed using a BD Accuri C6 flow cytometer, capturing 10000 live cell events and the median fluorescence of the stained cell populations graphed as shown in FIG. 15.

[2] = tested on: Glc-Cer and allied glycolipids in Gaucher patient cells; test: TLC analysis of the clearance of excess glycolipids after TPC treatment; assay type: cell-based, human; details: 10 uM final concentration, 3 days, FIG. 9
Method: A series of targeted pharmacological chaperone derivatives were compared for their abilities to affect glycolipid biosynthesis by 1D-TLC.
Primary Human Fibroblasts from Gaucher I (F0361999) patients were obtained from Istituto Giannina Gaslini (Genova, Italy). Primary Human Fibroblasts from a healthy donor (AG06173) and Gaucher I (GM00372A) patients were obtained from the Coriell Institute for Medical Research (Camden, N.J.). Cells were cultured in Minimum Essential Medium Eagle supplemented with 10% FCS.
Immortalized B-lymphocytes from healthy donor (GM14643), Gaucher I (GM10870, GM10874), and Gaucher II (GM08752) patients were obtained from the Coriell Institute for Medical Research.
Cell labeling solutions were prepared by diluting substrate stock solutions in the appropriate medium for the cell line (see above) without serum. TPC treatment solutions were prepared by diluting stock solutions in complete media appropriate for the cell line. Cells were treated with either the targeted pharmacological chaperones (10 uM final concentration), miglustat (10 uM) or no drug (control) for 3 days prior to all analyses. For lipid analyses cells were counted on a TC-10 Automated Cell Counter (Bio-Rad, Hercules, Calif.) harvested by centrifugation (800×g, 5 min.) and subjected to one PBS wash (1 mL per sample) and centrifugation as above. […]

| Structure (SMILES) | lysosomal GCase activity, Ambroxol and its targeted derivative [1] | lysosomal GCase activity compared to native drug SB216763 [1] | other results |
| --- | --- | --- | --- |
| Nc1c(Br)cc(Br)cc1CNC1CCC(O)CC1 (stereo not drawn) [Ambroxol, 4-(((2-Amino-3,5-dibromophenyl)methyl)amino)cyclohexanol, reference compound] | slightly inhibitory toward lysosomal GCase activity | – | – |
| CC(=O)NC(CSC1CC(=O)N(CCCC(=O)Nc2ccc(C3=C(c4cn(C)c5ccccc45)C(=O)NC3=O)cc2)C1=O)C(=O)NC(Cc1ccccc1)C(=O)NC(Cc1ccccc1)C(=O)NC(CCCCN)C(=O)NC(CC(=O)O)C(=O)NC(CCC(=O)O)C(=O)NC(CC(C)C)C(=O)O (stereo not drawn) [M2747] (Ac-C(X2)FFKDEL-OH; configuration not given here) | – | increased lysosomal GCase activity in lysosomes compared to the native drug | – |
| CC(C)CC(NC(=O)C(CCCNC(=N)N)NC(=O)C(CCC(N)=O)NC(=O)C(Cc1ccc(O)cc1)NC(=O)C(CC(=O)O)NC(=O)C(CO)NC(=O)C(C)NC(=O)CN)C(=O)NCC(=O)NC(CSC1CC(=O)N(CCCC(=O)Nc2ccc(C3=C(c4cn(C)c5ccccc45)C(=O)NC3=O)cc2)C1=O)C(=O)O (stereo not drawn) [M2748] (H-GASDYQRLGC(X2)-OH; configuration not given here) | – | increased lysosomal GCase activity in lysosomes compared to the native drug | – |
| CC(=O)NC(CSC1CC(=O)N(CCCC(=O)Nc2ccc(C3=C(c4cn(C)c5ccccc45)C(=O)NC3=O)cc2)C1=O)C(=O)NCC(=O)NCC(=O)NCC(=O)NCC(=O)NCC(=O)NC(C)C(=O)O (stereo not drawn) [M2749] (Ac-C(X2)GGGGGA-OH; configuration not given here) | – | equivalent or reduced lysosomal staining/drug efficacy than native drug | – |
| CC(=O)NC(CSC1CC(=O)N(CCCC(=O)Nc2c(Br)cc(Br)cc2CN[C@H]2CC[C@H](O)CC2)C1=O)C(=O)NCC(=O)NCC(=O)NCC(=O)NCC(=O)NCC(=O)NC(C)C(=O)O (stereo partly drawn) [M2781] (Ac-[ξC](X1)GGGGG[ξA]-OH) | increased lysosomal GCase activity | – | – |
| CCCCN1C[C@H](O)[C@@H](O)[C@H](O)[C@H]1CO [miglustat, N-butyl-deoxynojirimycin] | – | – | effect on glycolipid biosynthesis / clearance of excess glycolipids (Glc-Cer and allied glycolipids), 1D-TLC [2]: moderate effect |
